# Assay results published in the nanobody polyreactivity screen of Harvey et al. (2022).
# Assay: yeast display, Sf9 membrane polyspecificity reagent, FACS + sequencing; frameworks hold sequencing errors
# Outline: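 Genes from sorted yeast were amplified by colony PCR, read by MiSeq 2 × 250 sequencing and filtered on CDR length. These cells carried a synthetic nanobody library in Saccharomyces cerevisiae BJ5465 and were sorted by FACS into low and high (top ~1%) gates on anti-HA and streptavidin fluorescence. Polyreactivity is labelled according to the gate of origin.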
row,Sequence,polyreactivity (PSR sort gate)
1,QVQLVESGGGLVQAGGSIRLTCAASGRIFYGNAMGCYRQAPGKERELVAAISSGTSTNYADSVKGRFTISRDNAKTTVYLQMNSLKPEDTAVYYCAAGSYSRYLYSLYFDFDYWGQGTQVTVSS,low polyreactivity
2,QVQLVESGGGLVQAGGSLRLSCAASGIIIGGYAMGWYRQAPGKERELVADITWSGGSTTYADSVKGRFTISRDNAKNTVYLQMNSLKPEDTAVYYCAAEDYYIYREPYDYWGQGTQVTVSS,low polyreactivity
3,QVQLVESGGGLVQAGGSLRLSCAASGLIFFVYAMGWYRQAPGKERELVAAISASGVSTNYADSVKGRFTISRDNAKNTVYLQMNSLKPEDTAVYYCAAGRGGYGYWGQGTQVTVSS,low polyreactivity
4,QVQLVESGGGLVQAGGSLRLSCAASGSIFNENPMGSYRQAPGKERELVAVITHRTGSTYYADSVKGRFTISRDNAKYTFYLQLTSLTPEDTAVYYCATRTRRNRYRGGEYDYWGQGTQVTVSS,low polyreactivity
5,QVQLVESGGGLVQAGGSLRLSCAASGFIFYSNAMGWYRQAPGKERELVAAISRGGGSTYYADSVKGRITISRDNAKNTVYLQMNSLIPVDTAVYYCAKRRLSPQDDYWGQGTQVTVSS,high polyreactivity
6,QVQLVESGGGLVQAGGSLRLSCAASGNTFREYGMGWYRQAPGKERELVAAISSTGSTNYADSVKGRFTISRDNAKNTVYLQMNSLKPEDTAVYYCNRDRVWGSGVRTRGDYWGQVTQVTVSS,low polyreactivity
7,QVQLVESGGGLVQAGGSLRLSCAASGRTFRVYAMGWYRQAPGKEREFVAAISYSGGRTYYADSVKGRFTISRDNAKNTVYLQMNSLKPEDTAVYYCAAKTNRGSYSYDYWGQGTQVTVSS,high polyreactivity
8,QVQLEESGGGLVQAGGSLRLSCAASGSTFTFNAMGWYRQAPGKERELVAVISSGGSTYYAESVKGRFTISRDNAKNTFYLQMNSLKPEDTAVYYCNKVYGYFGQYYLRYNYWGQGTQVTVSS,low polyreactivity
9,QVQLVESGGGLVQAGGSLRLSCAASGRTFRTYAMGWYRQAPGKERELVAVITVNSASTYYADSVKGRFTISRDYAKNTVYLQMKSLKPEDTAVYYCADYFIYGYWGQGTQVTVSS,low polyreactivity
10,QVQLVESGGGLVQAGGSLRLSCAASGSNFDAYAIGWYRQAPGKERELVASISIGGSTNYADSVKGRFTISRDNAKNTVYLQMNSLKPEDSAVYYCAAYVYYTYPSGTVYSVSYIYDYWGQGTQVTVSS,low polyreactivity
11,QVQLVESGGRLVQAGGSLRLSCAASGRIFALNAMGWYRQAPGKERELVAAITWGGGSTYYADSVKGRFTISRDNAKNTVYLQMNSLKPVDTAVYYCAARYVFWPYWISGDSWGQGTQVTVSS,low polyreactivity
12,QVQLVESGGGLVQAGGSLRLSCAASGSTFYDYAMGWYRQAPGKERELVASIDSGDSTNYADSVKGRFTISRDNAKNTVYLQMNSLKPEDTAVYYCAARVYSVADYYYWGQGTQVTVSS,low polyreactivity
13,QVQLVESGGGLVQAGGSLRLSCAASGSTFPGNAMGWYRQAPGKERELVASIRRSGGSTYYADSVKGRFTISRDNAKNTVYLQMNSLKPEDTAVYYCAKRTFLVSGPRSYGCYGVYYWGQGTQVTVSS,high polyreactivity
14,QVQLVESGGGLVQAGGSLRLICAASGRIFYSYAMGWYRQAPGKERELVAAITVSGGSTFYADSVKGRFTISRDNAKNTVYLQMNSLKPEDTAVYYCAATRFSQYDWGQGTQVTVSS,high polyreactivity
15,QVQLVESGGGLVQAGGSLRLSCAASGRTFVYYDMGWSRPAPGKERELVAAIDSSGSTYYADSVKGRFTISRDNAKNTVYLQMNSLKPEDTAVYYCAAGYWFFPYWYDYWGQGTQVTVSS,high polyreactivity
16,QVQLVESGGGLVQAGGSLRLSCAASGSTFYIHAMGWNRQAPGKERELVAAISATGTRTYYADSVKGRFTISRDNAKNTFYLQMNSLKPEDTAVYYWNAVYWYWWVITYVGPGLGYWGQVTQVTVSS,high polyreactivity
17,QVQLVESGGGLVQAGGSLRLSCAASGRTFRVYAMGWYRQAPGKERELVAAISWSDGSTYYADSVKGRFTISRDYAKNTVYLQMNSLKPEDTAVYYCNARVRVPVTLHDYWGQCTQVTVSS,high polyreactivity
18,QVQLVESGGGLVQAGGSLRLSCAAYGSIFYYNAMGWYRQAPGKERELVAAITKSGTRTNYADSVKGRFTLSRDNAKNTVYLQMNSLKPEDTAVYYCAAEDQYYRYLFAYEYWGQGTQVTVSS,high polyreactivity
19,QVQLVESGGGLVQAGGSLRLSCAASGSIFRSNAMGWYRQAPGKERELVAAISSSGGSTYYADSVKGRFTISRDNAKNTVYLQMNSLKPEDTAVYYCNTSVDRGLGYWGQGTQVTVSS,low polyreactivity
20,QVQLVESGGGLVQAGGSLRLSCAASGRTFPLYAMGWYRQAPGKERELVARINRGGSTYYADSVKGRFTISRDNAKNTVYLQMNSLKPEDTAVYYCNARHTWHQTYDYWGQGTQVTVSS,low polyreactivity
21,QVQLVDSGGGLVQAGGSLRLSCAASGFTFTQYAMAWYIQAPGKERELVASIRSGGSTKYADSVKGRFTISRDNAKNTVYLQMISLKPEDTAVYYCAKDRYHISFFYQMEFWGQGTQVTVSS,low polyreactivity

row,Sequence,polyreactivity (PSR sort gate)
1,QVQLVESGGGLVQAGGSLRISCAASGRIFVSNAAMGWYIQAPGKESELVAAITSRGGRTTYADSVKGRFTSSRDNAKNTVYLQMNSLKPEDTAVYYCAARVRGYDWVRGSPFHHNYWGQGTQVTVSS,high polyreactivity
2,QVQLVESGGGLVQAGGSLRLSCAASGSIFELNAMGWYRQAPGKERELVAAITSSGSSTYYADSVKGRFTISRDNAKNTVYLQMNSLKPEDTAVYYCFRPHDYWGQGTQVTVSS,low polyreactivity
3,QVQLVESGGGLVQAGGSLRLSCAASGSTFLHYAMGWYRQAPGKERELVAAISRRGGRTYYADSVKGRFTISRDNAKNTVYLQMNSLKPEDTAVYYCAVDGIRDGYWIFYYWGQGTQVTVSS,low polyreactivity
4,QVQLVESGGGLVQAGGSLRLSCAASGYILWNAMGWYRQAPGKERELVAAIRFRGGSTSYADSVKGRFTISRDNAKNTVYLQMNSLKPEDTAVYYCNARWWVIRPYQRHDYWGQGTQVTVSS,low polyreactivity
5,QVQLVESGGGLVQEGGSLRLSCSDSGRILRRYTMGWYRQAPGKERELVAAISSGGNTYYADSVKGRFTISRDNAKNTVYLQMNSLKPEDTGVDYCAARVRRYWEYDYWGKGTQVTVSS,low polyreactivity
6,QVQLVESGGVLVQAGGSLRLSCAASGSTFGWYAMGWYRQAPGKERELVAAITSVGSTYYADYVKGRFTISRDNAKNTVYLQMNSLKPEDTAVYYCAAGWTYAYTLSLYEYWGQGTQVTVSS,low polyreactivity
7,QVQLVESGGGLVQAGGSLRLSCAASGRIFSLYAMGWYRQAPGKERELVAGITWRGGSTYYADSVKGRFTISRDNAKNTVYLQMNSMKPEDTAVYYCAARPWNWRDYDYWGQGTQVTVSS,high polyreactivity
8,QVQLVESGGGLVQAGGSLRLSCAASGGIFFINAMGWYRQAPGKERELIAAISISDGSTYYADSVKGRFTISRDNAKNTVYLQMNSLKTEDTAVYYCAADYDVLRLGYARIPLYDYWGQGTQVTVSS,low polyreactivity
9,QVQLVESGGGLVQAGGSLRLSCAASGFIFEMYAMGWYRQAHGKERELVAAISSSGDSTYYADSVKGRFTISRDNEKNTVYLQMNSLIPEDNAVYYCATECGYALYDYWGQGTQVTVSS,low polyreactivity
10,QVQLVESGGGLVQAGGSLRLSCAASGFTFGSNAMGWYRQAPGKERELVADITVSGGSTYYADSVKGRFTISRDNAKNTVYLQMNSLKPEDTAVYYCAKDPRTYLDYDYWGQGTQVNVSS,low polyreactivity
11,QVQLVESGGGLVQAGVSLRLSCAASGSTFYDIAMGWYRQATGKDRELVAAISYSGASTYYADSVKGRFTISRDNAKNTVYLHINSLKPEDTAVYYCAKTFYTLYWGQGTKVTVSS,low polyreactivity
12,QVQLVESGGGLVQAGGSLRLSCAASGTTFYKYSMGWYRQAPGKERELVAAITSRGDRTYYADSVKGRFTISRDNANNTVYLQMNSLKPEDTAVYYCAATRWRDAGHSYDYWGQGTQVTVSS,high polyreactivity
13,QVQLVESGGGLVQAGGSLRLSCAASGITFVFYAMGWYRQAPGKERELVATITWRTTRTFYADSVKRRFTISRDNAKNTVYLQMNSLKPEDTAVYYCAAGVNSTTRINDYWGQGTQVTVSS,low polyreactivity
14,QVQLVESGGGLVQAGGSLRLSWAASGFTFRRNAMGWYRQAPGKEREFVAAITRSGGSTYYADSVKGRFTISRDNAKNTVYVHMNSLKPEDTAVYYCAKERPTDRYPSDEYWGQGTQVTVSS,high polyreactivity
15,QVQLVESGAGLVQAGGSLRLSCAAYGSIFIIYAMGWYRQAPGKERELVAAINTSGTSTYYADSVKGRFTISRDNAKNTVYLQMNSLKPEDTAVYYCAAAGRRSYKYYYWGQGTQVTVSS,high polyreactivity
16,QVQLVESVGGLVQAGGSLRLSCAASGRTFSEYAMGWYRQAPGEERELVAAITSTGGITYYADSVKGRFTISRDNAKNTVYLQMNSLKPEDTAVYYCAARAYTWGPAGQVDKYYYWGQGTQVTVSS,high polyreactivity
17,QVELVESGGGLVQAGGSLRLSCDASGITFRSYAMGWYRQAPGKERELVAAIRSGGSTSYADSVKGRFTISRDNAKNTVYLQMNSLKPEDTAVYFCAAGGYVPLTDITFWKFGYWGQGSQVTVSS,low polyreactivity
18,QDQLVESGGCLVQAGGSLRLSCAASGSTFRSNAMGWYRQAPGKERELVAAISRGGSTNYADSVKGRFTISRDNAKNTVYLQMNSLKTEDTAVYYCNADWDYRDFYDITYDYWGQGTQVTVSS,low polyreactivity
19,QVQLVESGGGLVQAGGSIRLSCAASRFTFGPYAMGWYRQAHVKERELVAAITIRGGSPYADSVKGRFTISRDNAKNTVYLQMNSLKPEDTAVYYCATVRALEYNYWGQGTQVTVSS,low polyreactivity
20,QVQLVESGGGLVQAGGSLRLSCAASGSIFRSNTMGWYRQAPGKERELVAGISYSGGSTYADSVKGRFTISRDNAKNTVYLQMNSLKPEDTAVYYCNTVYDPHTGQSDSWGQATQVTVSS,low polyreactivity
